# T1: CYNO LEPR-ECD-His (cynomolgus monkey, UniProt Q9MYL0 22-837 (rhesus entry))
# T1 construct: also called cynomolgus monkey LEPR
# T1 sequence: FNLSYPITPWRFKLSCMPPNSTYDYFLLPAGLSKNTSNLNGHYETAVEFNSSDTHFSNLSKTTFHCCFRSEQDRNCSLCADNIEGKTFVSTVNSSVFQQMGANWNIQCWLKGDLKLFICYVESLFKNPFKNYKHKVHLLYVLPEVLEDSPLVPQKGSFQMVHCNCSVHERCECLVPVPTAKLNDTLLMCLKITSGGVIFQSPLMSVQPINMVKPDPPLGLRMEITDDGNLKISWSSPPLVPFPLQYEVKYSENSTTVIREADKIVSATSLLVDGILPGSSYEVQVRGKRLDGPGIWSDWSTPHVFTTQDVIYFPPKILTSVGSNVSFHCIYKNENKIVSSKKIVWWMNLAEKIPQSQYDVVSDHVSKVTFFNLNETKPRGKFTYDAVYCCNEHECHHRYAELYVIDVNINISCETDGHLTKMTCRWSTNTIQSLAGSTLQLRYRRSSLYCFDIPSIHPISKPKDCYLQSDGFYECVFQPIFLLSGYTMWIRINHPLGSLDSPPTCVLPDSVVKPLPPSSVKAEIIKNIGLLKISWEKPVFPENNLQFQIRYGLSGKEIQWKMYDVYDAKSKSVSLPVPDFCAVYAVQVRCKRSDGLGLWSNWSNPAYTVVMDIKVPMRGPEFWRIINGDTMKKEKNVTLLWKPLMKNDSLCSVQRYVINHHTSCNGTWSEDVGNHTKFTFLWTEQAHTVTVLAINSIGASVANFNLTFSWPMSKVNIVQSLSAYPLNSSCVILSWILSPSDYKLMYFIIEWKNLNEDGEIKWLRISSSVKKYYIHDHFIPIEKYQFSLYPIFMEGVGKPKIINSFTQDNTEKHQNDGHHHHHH
# T2: human LEPR, full length, on HEK293-STAT3Luc-hLepR1 cells (Homo sapiens, UniProt P48357 22-1165)
# T2 construct: also called human LEPR on live cell surface
# T2 sequence: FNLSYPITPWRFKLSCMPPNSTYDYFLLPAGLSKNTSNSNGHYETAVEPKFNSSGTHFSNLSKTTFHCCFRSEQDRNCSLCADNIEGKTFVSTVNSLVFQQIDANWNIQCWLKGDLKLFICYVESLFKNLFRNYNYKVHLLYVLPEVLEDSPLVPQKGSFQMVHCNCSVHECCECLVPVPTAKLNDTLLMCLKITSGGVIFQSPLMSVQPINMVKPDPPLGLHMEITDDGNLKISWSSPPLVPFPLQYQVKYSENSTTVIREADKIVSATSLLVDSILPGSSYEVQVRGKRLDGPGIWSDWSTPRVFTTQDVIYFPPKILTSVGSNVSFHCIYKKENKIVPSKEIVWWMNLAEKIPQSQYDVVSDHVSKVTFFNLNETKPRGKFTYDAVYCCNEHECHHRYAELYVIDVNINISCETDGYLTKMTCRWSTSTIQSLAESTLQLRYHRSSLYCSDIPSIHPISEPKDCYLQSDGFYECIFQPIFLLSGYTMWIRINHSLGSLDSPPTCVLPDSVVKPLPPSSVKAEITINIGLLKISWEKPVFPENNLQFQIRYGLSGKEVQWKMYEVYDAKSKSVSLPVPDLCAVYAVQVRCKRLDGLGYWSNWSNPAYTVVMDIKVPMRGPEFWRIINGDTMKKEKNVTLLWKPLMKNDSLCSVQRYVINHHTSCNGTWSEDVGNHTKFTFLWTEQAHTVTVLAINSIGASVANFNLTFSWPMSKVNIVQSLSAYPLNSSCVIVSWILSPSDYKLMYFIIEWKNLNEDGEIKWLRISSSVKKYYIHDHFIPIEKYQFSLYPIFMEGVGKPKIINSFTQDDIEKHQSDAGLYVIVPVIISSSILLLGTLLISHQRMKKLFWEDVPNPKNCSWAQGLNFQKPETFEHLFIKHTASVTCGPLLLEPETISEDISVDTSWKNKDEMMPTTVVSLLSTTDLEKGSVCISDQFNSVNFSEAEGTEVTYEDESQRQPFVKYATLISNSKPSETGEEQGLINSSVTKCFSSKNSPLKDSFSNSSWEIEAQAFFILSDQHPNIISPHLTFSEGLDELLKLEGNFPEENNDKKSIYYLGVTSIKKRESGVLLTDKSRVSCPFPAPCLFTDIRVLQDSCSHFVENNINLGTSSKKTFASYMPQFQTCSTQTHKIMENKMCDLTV
# T3: Mouse LEPR-ECD-His (mouse, UniProt P48356 22-839)
# T3 sequence: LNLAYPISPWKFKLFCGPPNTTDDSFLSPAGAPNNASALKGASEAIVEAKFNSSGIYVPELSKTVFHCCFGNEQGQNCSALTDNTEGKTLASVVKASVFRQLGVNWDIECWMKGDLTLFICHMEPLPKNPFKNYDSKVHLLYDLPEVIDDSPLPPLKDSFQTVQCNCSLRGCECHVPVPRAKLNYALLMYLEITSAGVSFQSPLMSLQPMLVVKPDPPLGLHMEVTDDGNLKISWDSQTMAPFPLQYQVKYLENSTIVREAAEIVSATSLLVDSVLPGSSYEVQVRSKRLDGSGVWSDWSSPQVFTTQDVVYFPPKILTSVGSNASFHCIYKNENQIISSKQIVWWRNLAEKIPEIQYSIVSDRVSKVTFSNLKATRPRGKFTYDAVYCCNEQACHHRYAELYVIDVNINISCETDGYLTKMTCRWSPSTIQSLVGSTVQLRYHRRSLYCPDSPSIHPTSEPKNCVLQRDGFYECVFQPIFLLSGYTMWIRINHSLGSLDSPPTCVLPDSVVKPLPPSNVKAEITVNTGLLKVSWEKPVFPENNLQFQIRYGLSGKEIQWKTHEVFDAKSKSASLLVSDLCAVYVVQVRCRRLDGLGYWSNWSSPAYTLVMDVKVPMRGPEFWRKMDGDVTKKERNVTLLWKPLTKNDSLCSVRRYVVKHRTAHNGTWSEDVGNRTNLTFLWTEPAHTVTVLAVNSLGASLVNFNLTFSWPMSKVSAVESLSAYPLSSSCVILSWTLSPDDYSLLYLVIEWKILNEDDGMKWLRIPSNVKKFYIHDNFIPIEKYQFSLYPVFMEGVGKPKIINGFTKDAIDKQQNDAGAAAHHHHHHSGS
# B1: Antibody A (antibody, human IgG1, kappa, L234A L235A)
# heavy: EVQLLESGGGLVQPGGSLRLSCAASGFTFSSFAMSWVRQAPGKGLEWVSAISGSGGSTYSADSVRGRFTISRDNSKNTLYLQMNSLRAEDTAVYYCAKDQGDWDFLFDYWGQGTLVTVSSASTKGPSVFPLAPSSKSTSGGTAALGCLVKDYFPEPVTVSWNSGALTSGVHTFPAVLQSSGLYSLSSVVTVPSSSLGTQTYICNVNHKPSNTKVDKRVEPKSCDKTHTCPPCPAPEAAGGPSVFLFPPKPKDTLYITREPEVTCVVVSVSHEDPEVKFNWYVDGVEVHNAKTKPREEQYNSTYRVVSVLTVLHQDWLNGKEYKCKVSNKALPAPIEKTISKAKGQPREPQVYTLPPSREEMTKNQVSLTCLVKGFYPSDIAVEWESNGQPENNYKTTPPVLDSDGSFFLYSKLTVDKSRWQQGNVFSCSVMHEALHNHYTQKSLSLSPGK
# light: DIQMTQSPSFLSASVGDRVTITCRASQGISSSLAWYQQKPGKAPKLLIYTASTLQSGVPSRFSGSGSGTEFTLTISSLQPEDFATYYCQQLIYYPFTFGQGTKVEIKRTVAAPSVFIFPPSDEQLKSGTASVVCLLNNFYPREAKVQWKVDNALQSGNSQESVTEQDSKDSTYSLSSTLTLSKADYEKHKVYACEVTHQGLSSPVTKSFNRGEC
# notes: IgG1 mAb
# B2: Antibody C (antibody, human IgG1, kappa, L234A L235A, V domains shown)
# VH: EVQLLESGGGLVQPGGSLRLSCAASGFTFSSFAMSWVRQAPGKGLEWVSAISGSGGSTYSADSVRGRFTISRDNSKNTLYLQMNSLRAEDTAVYYCAKDQGDWDFLFDYWGQGTLVTVSS
# VL: DIQMTQSPSFLSASVGDRVTITCRASQGISSSLAWYQQKPGKAPKLLIYTASTLQSGVPSRFSGSGSGTEFTLTISSLQPEDFATYYCQQLNYYPFSFGQGTKVEIKR
# Assays:
# [1] = target: T1, CYNO LEPR-ECD-His; test: SPR (Biacore T200), antibody captured on Protein A/G chip, His-tagged LEPR-ECD as analyte, 1:1 fit; mean n=3, SD 2.0E-9
# Procedure: (§1) His-tagged ECDs were expressed and purified for each species and used for affinity analysis. A Protein A/G chip (Xantec, Cat #PAGHC200M) was utilized in this experiment with HBS-EP +0.01% BSA as running buffer. Antibodies were diluted to 1 μg/mL in running buffer and captured to a single flow cell on the chip surface. Each species of LEPR-ECD was diluted to 1000 nM in running buffer followed by 2-fold serial dilution. Each ligand concentration was injected over all flow cells at 100 L/min for 150 seconds followed by a 600 second dissociation phase. Regeneration was performed by injecting 10 mM glycine pH1.5 for 30 seconds at 10 μL/min. Data were analyzed in Biacore T200 Evaluation Software 3.1 by flow-cell 1 reference subtraction along with 0 nM blank subtraction. Data were fit globally using a “1:1 Binding” binding model to determine the on-rate (kₐ) and off-rate (kd) for each ligand. The affinity (KD) was calculated from the binding kinetics according to the relationship KD=kₐ/kd. Data reported as mean±standard deviation of experimental replicates.
# [2] = target: T2, human LEPR, full length, on …; test: flow cytometry on live HEK293-STAT3Luc-hLepR1 cells, AF647 anti-human IgG; average of 4 runs, SD 1.7
# Procedure: Cells were incubated in blocking buffer for 10 mins at room temperature. After one rinse with PBS, cells were transferred to U-bottom 96-well plate at 200 μL and 0.2˜0.26^e6 cells/well. […] Cells were then incubated with 30 μL/well of antibodies diluted in flow buffer at 1000 nM as high dose followed by 9-point dose response including 5-fold dilutions not including 0 (totaling 9 concentrations for each Antibody) for 30 minutes at 4° C. in dark.
# [3] = target: T3, Mouse LEPR-ECD-His; test: SPR (Biacore T200), antibody captured on Protein A/G chip, n = 1
# Procedure: as §1
Binder,Kd [1] [nM],EC50 [2] [nM],binding result [3]
B1,19,2.45,
B2,,,no binding (tested: LEPR-ECD tested up to 1000 nM)

# — patent US20250289897A1 (Eli Lilly, published 2025)
